These results are taken from patent US20110263827A1 (AbbVie / Abbott, published 2011).

The EC50 is the midpoint of the concentration-response curve.

Experiment [1] concerns the target T1, VEGF (UniProt P15692-4 27-191, limits assumed, biotinylated).
T1 construct: ELISA antigen
As to the kind of experiment: direct bind ELISA, C-term VD. (In general: In an ELISA, binding on a coated surface is turned into a signal by an enzyme label.)

For experiment [2], the target named is T2, EGFR (UniProt P00533 25-645, limits assumed, biotinylated).
T2 construct: ELISA antigen; construct not described
Description: direct bind ELISA, N-term VD.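 Also: antibody or DVD-Ig preparations bound to immobilized target antigen on ELISA plates, 1 h at room temperature, TMB detection read as absorbance at 450 nm.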

The target of experiment [3] is T2, EGFR. As to the kind of experiment: direct bind ELISA, C-term VD.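 Also: ELISA with antibody or DVD-Ig preparations applied to target antigen-coated plates for 1 h at room temperature, TMB colour development, absorbance read at 450 nm.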
Experiment [4] addresses T1, VEGF. Description: direct bind ELISA, N-term VD.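 Also: antibody or DVD-Ig preparations bound to immobilized target antigen on ELISA plates, 1 h at room temperature, TMB detection read as absorbance at 450 nm.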

B1: DVD759 (bispecific antibody)
VH: QVQLQESGPGLVKPSQTLSLTCTVSGYSISSDFAWNWIRQPPGKGLEWMGYISYSGNTRYQPSLKSRITISRDTSKNQFFLKLNSVTAADTATYYCVTAGRGFPYWGQGTLVTVSSASTKGPEVQLVESGGGLVQPGGSLRLSCAASGFTINASWIHWVRQAPGKGLEWVGAIYPYSGYTNYADSVKGRFTISADTSKNTAYLQMNSLRAEDTAVYYCARWGHSTSPWAMDYWGQGTLVTVSS
VL: DIQMTQSPSSMSVSVGDRVTITCHSSQDINSNIGWLQQKPGKSFKGLIYHGTNLDDGVPSRFSGSGSGTDYTLTISSLQPEDFATYYCVQYAQFPWTFGGGTKLEIKRTVAAPDIQMTQSPSSLSASVGDRVTITCRASQVIRRSLAWYQQKPGKAPKLLIYAASNLASGVPSRFSGSGSGTDFTLTISSLQPEDFATYYCQQSNTSPLTFGQGTKVEIKR
notes: DVD-Ig; HC S, LC S; variable parts only
With B1, the figures for the EC50 in experiment [1] and in experiment [2] were 128 nM and 7.01 nM, respectively.

B2: DVD780 (bispecific antibody)
VH: EVQLVESGGGLVQPGGSLRLSCAASGYTFTNYGMNWVRQAPGKGLEWVGWINTYTGEPTYAADFKRRFTFSLDTSKSTAYLQMNSLRAEDTAVYYCAKYPHYYGSSHWYFDVWGQGTLVTVSSASTKGPSVFPLAPQVQLQESGPGLVKPSQTLSLTCTVSGYSISSDFAWNWIRQPPGKGLEWMGYISYSGNTRYQPSLKSRITISRDTSKNQFFLKLNSVTAADTATYYCVTAGRGFPYWGQGTLVTVSS
VL: DIQMTQSPSSLSASVGDRVTITCSASQDISNYLNWYQQKPGKAPKVLIYFTSSLHSGVPSRFSGSGSGTDFTLTISSLQPEDFATYYCQQYSTVPWTFGQGTKVEIKRTVAAPSVFIFPPDIQMTQSPSSMSVSVGDRVTITCHSSQDINSNIGWLQQKPGKSFKGLIYHGTNLDDGVPSRFSGSGSGTDYTLTISSLQPEDFATYYCVQYAQFPWTFGGGTKLEIKR
notes: DVD-Ig; HC L, LC L; variable parts only
B2: the values for the EC50 in experiment [3] and in experiment [4] were 409 nM and 2.19 nM, respectively.

B3: DVD757 (bispecific antibody)
VH: QVQLQESGPGLVKPSQTLSLTCTVSGYSISSDFAWNWIRQPPGKGLEWMGYISYSGNTRYQPSLKSRITISRDTSKNQFFLKLNSVTAADTATYYCVTAGRGFPYWGQGTLVTVSSASTKGPEVQLVESGGGLVQPGGSLRLSCAASGFTISDYWIHWVRQAPGKGLEWVAGITPAGGYTYYADSVKGRFTISADTSKNTAYLQMNSLRAEDTAVYYCARFVFFLPYAMDYWGQGTLVTVSS
VL: DIQMTQSPSSMSVSVGDRVTITCHSSQDINSNIGWLQQKPGKSFKGLIYHGTNLDDGVPSRFSGSGSGTDYTLTISSLQPEDFATYYCVQYAQFPWTFGGGTKLEIKRTVAAPDIQMTQSPSSLSASVGDRVTITCRASQDVSTAVAWYQQKPGKAPKLLIYSASFLYSGVPSRFSGSGSGTDFTLTISSLQPEDFATYYCQQSYTTPPTFGQGTKVEIKR
notes: as for B1
Consider B3, for which the results for the half-maximal effective concentration (EC50) in experiment [1] and in experiment [2] were 528 nM and 14.5 nM, respectively.

B4: DVD790 (bispecific antibody)
VH: EVQLVESGGGLVQPGGSLRLSCAASGFTISDYWIHWVRQAPGKGLEWVAGITPAGGYTYYADSVKGRFTISADTSKNTAYLQMNSLRAEDTAVYYCARFVFFLPYAMDYWGQGTLVTVSSASTKGPSVFPLAPQVQLQESGPGLVKPSQTLSLTCTVSGYSISSDFAWNWIRQPPGKGLEWMGYISYSGNTRYQPSLKSRITISRDTSKNQFFLKLNSVTAADTATYYCVTAGRGFPYWGQGTLVTVSS
VL: DIQMTQSPSSLSASVGDRVTITCRASQDVSTAVAWYQQKPGKAPKLLIYSASFLYSGVPSRFSGSGSGTDFTLTISSLQPEDFATYYCQQSYTTPPTFGQGTKVEIKRTVAAPSVFIFPPDIQMTQSPSSMSVSVGDRVTITCHSSQDINSNIGWLQQKPGKSFKGLIYHGTNLDDGVPSRFSGSGSGTDYTLTISSLQPEDFATYYCVQYAQFPWTFGGGTKLEIKR
notes: as for B2
Regarding B4, the EC50 was 76.8 nM in experiment [3] and 15.9 nM in experiment [4].
